Measured values published in the supplement of paper PMC12042874.
± gives the uncertainty stated by the source.

test: amyloid nucleation score (Sup35N fusion, yeast selection) (log enrichment); library NNK1; higher = more nucleation; inactive = no reads after selection
Outline: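 The nucleation score is the DiMSum log enrichment of output over input reads, centred on the mode score of non-aggregating sequences. Only sequences with 100 or more input reads were scored, using Illumina sequencing of input and output plasmid inserts. Psi-negative yeast expressing Sup35N fused to peptides of 20 random codons were induced 24 hours with 100 μM copper sulfate and grown 7 days at 30°C on medium lacking adenine and uracil.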

| Substance | amyloid nucleation score |
| --- | --- |
| TFKKWMRIVYNLISKLKSRH | 2.98 ± 0.081 |
| EVDRWGICCPYW | 1.88 ± 0.26 |
| YSYKCGGVRTSTSFLSMLFV | 0.811 ± 0.18 |
| GFSLDRFSDHVLMGNSD | -0.585 ± 0.23 |
| WTRCHK | -0.297 ± 0.35 |
| DAIVDS | 0.084 ± 0.54 |
| VSITRVGTFIRYLFCIARCW | -0.866 ± 0.9 |
| RLSNLVRPLDRLIGVVEVGM | 0.469 ± 0.42 |
| LFDDS | -0.356 ± 0.46 |
| KRSSFYHWQWHGKSL | -0.718 ± 0.51 |
| ILPAYAQ | 0.134 ± 1.1 |
| MRCKCGLYAHSYSALLGNVE | inactive |
| CVSIQDHFRGYKALDPAWFV | 0.805 ± 0.27 |
| REANNPCRVNTKSIVVRLEV | -0.787 ± 0.32 |
| LSSTSV | 0.425 ± 0.44 |
| RERESQMYFNLFSENTY | -0.435 ± 0.51 |
| SWIEKDHFQVGARYRMSS | -0.376 ± 0.6 |
| TLSTRTIHSCSEYYSGMCVL | 0.089 ± 0.93 |
| VRSGDCYRSNSKSVFVMAIR | 0.617 ± 0.49 |
| VIESG | 1.34 ± 0.93 |
| PRGLVWNVPRLSKTVASILF | -0.942 ± 0.73 |
| TWAHMQYDVWPDPTAEKDQV | 0.158 ± 0.34 |

| Substance | amyloid nucleation score |
| --- | --- |
| LRLIV | 0.113 ± 0.89 |
| GCIECEGAGCAPIYGVEWLD | 0.122 ± 0.84 |
| YFLLACLNVS | 0.828 ± 0.26 |
| SHPVIL | 0.039 ± 0.29 |
| VSVMFYPFVFHWYGCLLTSA | 2.96 ± 0.12 |
| VPIVGDLEKVMGCYSYWANK | -0.011 ± 0.18 |
| LFSIGALY | -0.035 ± 0.2 |
| NLSGDDFGVNEKTSRWCQWG | 0.397 ± 1.2 |
| KSTSRPCHWIYWMWMVYPRY | 0.445 ± 0.81 |
| PRWSLCIPSVLSGVITTIMT | 0.286 ± 0.27 |
| AQTPRLLKVG | -1.01 ± 1.8 |
| VRMKIGNFSCCRYWKPPLYT | 1.29 ± 0.61 |
| SGNTGPFRCARAADNSNFKG | -0.922 ± 0.67 |
| GCSVVNMADMG | 1.29 ± 0.45 |
| GSHSRGY | -0.289 ± 0.36 |
| IMCIHSFCFCLRPSHLIVGG | 0.774 ± 0.41 |
| RLCQVDEAASTESRKAKWGR | 0.075 ± 0.35 |
| FCEHNVISYNESLRM | 0.352 ± 0.53 |
| FTRKEVVPMWDKEDRVCIGD | 0.02 ± 0.74 |
| WLVLHTNLMLGCSTRSMLCA | 0.174 ± 0.5 |
| SCYMHVR | 0.372 ± 0.52 |
| YSNFFQHRTWMIDCSFPTGL | 0.147 ± 0.37 |

| Substance | amyloid nucleation score |
| --- | --- |
| SCMRSKWKNTWLKYRYVNCI | -0.493 ± 0.62 |
| NFTNFW | -0.732 ± 0.56 |
| GVAWMFLCYVLAA | 0.575 ± 0.27 |
| RVTVIIFTLSRGYIIMSRNR | -1.12 ± 1.1 |
| WGWHNYWDGSVVVWRSATAH | -0.414 ± 0.75 |
| QVYYVCGYTSDKLLKNSYNN | -0.125 ± 0.45 |
| LRSKCECNTRGSCAWWCSDA | 1.1 ± 0.9 |
| GELLTLHITGLNEVLVNTSM | -0.21 ± 0.31 |
| MNEERVGNLIFCRDSFMSSW | -0.096 ± 0.97 |
| HSASQLPYYQY | 0.498 ± 0.97 |
| NYFTVCLKGVRSDPPSVAKG | -0.596 ± 0.4 |
| GRRYCRANSWLATTSSRISL | 2.1 ± 0.44 |
| ACLGVTRGYSGPSTTKSFLR | -0.238 ± 0.46 |
| WLVVFVDSVYARRWCELKFL | 0.39 ± 0.36 |
| RAFAFTW | 2.38 ± 0.14 |
| LVPSTFHTF | 0.149 ± 0.77 |
| NGKSAQ | 4.05 ± 0.064 |
| VSFYGGFGKK | -0.116 ± 0.64 |
| FLVQVAWFLPAGGYGDNFCC | 0.049 ± 0.39 |
| VEQLFGLAMRDLA | -0.448 ± 0.8 |
| YLTQLV | 0.528 ± 0.38 |
| ELYPGF | -0.219 ± 1.2 |

| Substance | amyloid nucleation score |
| --- | --- |
| FATFRMSCPAKTVSVAVIGG | -0.069 ± 0.77 |
| FHRVDGVDCRTMYEGV | -0.937 ± 0.72 |
| GVDSFTDSIEYKVGRRVFRH | 1.21 ± 0.76 |
| VRLSFPKRLSISSAVCNRGS | 0.279 ± 0.62 |
| TMGLSLYGV | -0.174 ± 0.51 |
| GVNCKYVVLKNNVIWTHCLR | 6.453 ± 0.05 |
| VRAEVGQDRVGRM | 0.09 ± 0.44 |
| FVGGPPMIQYVVPV | 0.326 ± 0.42 |
| YYLSLGLKLMSMVPVKSTY | inactive |
| RSESNVMS | 0.397 ± 0.71 |
| FFNVVYLTRANASYTGYSNI | 5.41 ± 0.063 |
| DACGNWCYCWRALDGQDGSI | 0.099 ± 0.31 |
| HFLTDMNFKRARDSDLSSVW | 0.489 ± 0.29 |
| LGVRRPQEISCHADHASRWL | -0.776 ± 1.3 |
| AKGCNMWI | 2.3 ± 0.32 |
| ICNSLMEDDMGASEVMC | 0.734 ± 0.57 |
| ITVRPLPYRPIDVHRYFAQH | 0.77 ± 0.34 |
| FADLK | -0.88 ± 1.7 |
| VIFSGVTRFHSRTCLRFVMI | -0.09 ± 0.79 |
| WPDISCPPCNGDRMTVKWHV | 0.836 ± 0.97 |
| FWVFAITFTAERKLQADDLF | 1.84 ± 0.15 |
